Data from patent publication US20250243243A1, “DISRUPTION OF SONIC HEDGEHOG-SURF4 INTERACTION FOR CANCER TREATMENT” (The Hong Kong University of Science and Technology, priority 2022, published 2025).

Assays:
GST-SURF4^49-60 = target: T1, GST-SURF4^49-60 (Homo sapiens, UniProt O15260); test: Peptide binding assay: peptides immobilized on thiopyridone sepharose 6B beads, GST-SURF4^49-60 as prey, immunoblot; details: pull down, immunoblotting with anti-GST antibodies
T1 construct: N-terminal GST-tagged SURF4^49-60; made in house; host or cells: E. coli
Method: (§1) Immunoprecipitation was performed as described (27). Purification of GST-tagged ShhN^25-49 and GST-tagged […] was performed as described previously (54). GST pull down assays were performed as described previously (54). Peptide binding assay was performed as described previously (27).
(§2) Peptide binding assay was performed as described previously (59). Synthetic CW peptides ([…]; SEQ ID NO: 6), CW^MT peptides ([…]; SEQ ID NO: 9), SURF4^49-61 peptides ([…]; SEQ ID NO: 10), SURF4^49-60 peptides ([…]; SEQ ID NO: 12), or RRFR peptides ([…]; SEQ ID NO: 11) were purchased from GenScript and coupled to thiopyridone-Sepharose 6B beads (Sigma-Aldrich) via the added C-terminal cysteine residue. For binding experiments, 2 ? g purified GST-tagged SURF4^49-60 or Shh^25-49-GST was preincubated at 4° C. for 30 min in a total volume of […] HK buffer. After incubation, […] buffer containing around 5 ? l beads containing 5 nmol of peptides was added to the reaction mixture for 1 h at 4° C. The beads were washed four times with […] of HK buffer and analyzed by immunoblotting.

[1] = target: T2, interaction between ShhN and SURF4 (Mus musculus, UniProt Q62226); test: GST pull down of SURF4-HA from HEK293T lysates by ShhN^25-49-GST in the presence of heparin; type: binding, human
T2 construct: Purified GST-tagged human ShhN^25-49 was incubated with lysates; made in house; host or cells: ShhN25-49-GST from E. coli; SURF4-HA in lysates of transfected HEK293T cells
T2 sequence (Q62226 25-49): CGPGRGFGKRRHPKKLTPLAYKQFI
Method: as §1
Purification of GST-tagged ShhN^25-49 and GST-tagged SURF4^49-60 was performed as described previously (58). GST pull down assays were carried out with 10 μl of compact GSH beads bearing around 5 ? g of GST-tagged ShhN^25-49. The beads were incubated with […] of 0.5 mg/ml of cell lysates from HEK293T cells transfected with HA-SURF4 in HKT buffer at pH 6.0 or 7.2 with mixing at 4° C. overnight. After incubation, the beads were washed three times with […] of HKT buffer and twice with […] of HK buffer, and the bound material was analyzed by immunoblotting.

Shh^25-49-GST = target: T3, Shh^25-49-GST (Mus musculus, UniProt Q62226); test: Peptide binding assay: immobilized SURF4 luminal peptides, Shh^25-49-GST as prey, immunoblot; parameters: species or system human; details: pull down, immunoblotting with anti-GST antibodies
T3 construct: C-terminal GST-tagged Shh^25-49; made in house; host or cells: E. coli
Method: as §1, §2

GST = target: T4, GST (Schistosoma japonicum, UniProt P08515); test: Peptide binding assay: immobilized peptides, GST as prey, immunoblot; details: pull down, GST control prey
T4 construct: made in house; host or cells: E. coli
T4 sequence (P08515 whole entry): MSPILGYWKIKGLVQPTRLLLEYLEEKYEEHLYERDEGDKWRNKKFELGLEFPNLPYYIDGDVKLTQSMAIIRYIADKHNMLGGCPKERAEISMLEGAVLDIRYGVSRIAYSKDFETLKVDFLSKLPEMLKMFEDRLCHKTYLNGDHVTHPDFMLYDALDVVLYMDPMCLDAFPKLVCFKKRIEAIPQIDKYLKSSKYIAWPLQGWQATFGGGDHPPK
Method: as §1, §2

## RRFR peptides: Peptides corresponding to the first intracellular loop of Frizzled6, VRRFRYPERPC (SEQ ID NO: 11)
GST-SURF4^49-60
  level of GST-SURF4^49-60 bound to immobilized peptides: significantly lower than that bound to the CW peptides

## CW(KR-AA) peptides: Alanine substituted mutant of the CW peptide, AAAHPAAC (SEQ ID NO: 9)
GST-SURF4^49-60
  level of GST-SURF4^49-60 bound to immobilized peptides: bound more efficiently to the wild-type CW sequence than an alanine substituted mutant

## heparin
[1]; indicated concentrations of heparin
  inhibition of the interaction between ShhN and SURF4: inhibited the interaction between ShhN and SURF4 in a concentration-dependent manner
[1]; pH 6.0
  inhibition of the ShhN-SURF4 interaction at pH 6.0: still inhibits the ShhN-SURF4 interaction

## SURF4 luminal peptides: First luminal loop of SURF4, SEQRDYIDTTWNC (SEQ ID NO: 10)
Shh^25-49-GST
  interaction of Shh^25-49-GST with immobilized SURF4 luminal peptides: interacts
GST
  binding of GST to immobilized peptides: not GST interacts
